These results are taken from patent publication US20150265679A1, “METHOD OF REDUCING ADVERSE EFFECTS IN A CANCER PATIENT UNDREGOING TREATMENT WITH A MEK INHIBITOR” (THE UNITED STATES OF AMERICA, as represented by THE …, priority 2013, published 2015).

Data set [1] deals with patients with central serious chorioretinopathy. Kind of data set: Topical IFN gamma in patients with central serious chorioretinopathy (ongoing trial). The data set is classed as in vivo, human. The text has this: Topical IFN gamma was also studied in the treatment of serious retinal detachments in patients with central serious chorioretinopathy. […] This occurred during the second week of a two-week course of therapy.

Data set [2] relates to hfRPE monolayers. Kind of data set: Transepithelial fluid transport (JV) across hfRPE monolayers, capacitance probe technique. Type of data set: cell-based, human. Particulars: for normal fluid absorption after MEK inhibitor: IFN-γ (15 ng/ml, FIG. 10B) to basal bath after 72 hours 10 μM plus acute 100 μM MEK inhibitor; for rescue of apical MEK inhibitor-induced reduction in fluid absorption: basolateral IFN-γ (10 ng/ml, FIGS. 11A, 11B) after acute apical MEK inhibitor. The source says: Confluent monolayers of hfRPE cultured on transwells were mounted in an electrophysiological chamber and transepithelial water flow (JV) measurements were made with a capacitance probe technique as described previously in Maminishkis 2006; Shi, G., et al., Invest Ophthalmol Vis Sci, 2008, 49, 4620-4630; Edelman, J. L., et al., Invest Ophthalmol Vis Sci, 1991, 32, 3033-3040; Jiang, C., et al., Science, 1993, 262, 424-427; and Maminishkis, A., et al., Invest Ophthalmol Vis Sci, 2002, 43, 3555-3566, each incorporated herein by reference in its entirety. In brief, the RPE is mounted in a water-jacketed ? ssing chamber and oriented vertically with the apical and basolateral membranes separately exposed to Ringer's solution held in bathing reservoirs. Stainless steel probes (Accumeasure System 1000; MT Instruments, Latham, N.Y.) are lowered into the apical and basolateral bathing wells to measure the capacitance of the air gap between the probe and fluid meniscus. Fluid transport rate JV (μl·cm^−2·hr^−1) is determined by monitoring the fluid movement-induced changes in the air gap capacitance at the apical and basolateral baths. The probes on both sides of the tissue are backed off from the surface of the Ringer's solution during a bathing solution change.
The capacitance probes are moved away from the bathing reservoirs and fresh control Ringer's solution perfused into the chamber. The fluid transport apparatus also allows continuous monitoring of TEP and RT, but for technical reasons (e.g., solution perfusion rates, TEP/RT sampling rates, and electrode stability) the initial changes in TEP and RT can only be compared to those seen in the electrophysiology experiments. Experiments are continued only if JV, TEP, and RT are not appreciably altered by this control-to-control Ringer's solution change. The water jacketed ? ssing chamber is placed in an incubator to maintain steady-state control over temperature, pCO2, and humidity.
Tissue viability was ascertained by recording transepithelial potential (TEP) and total tissue resistance (RT). It should be noted that the solution composition changes in this chamber were relatively slow (≈1-2 chamber volumes per minute) and the data sampling rate was once per minute, more than two orders of magnitude slower than the sampling rate in the electrophysiology chamber (see below). Therefore it was not possible to record fast changes, in seconds or minutes, in JV, TEP, or RT. After addition of IFNγ to the apical or basal baths, steady-state JV, TEP, and RT were recorded for 20-30 minutes. In control experiments, successive additions of IFNγ were made to test for the repeatability and reversibility of responses.
Effects of MEK inhibitor on human fetal retinal pigment epithelium (hfRPE) were measured following acute and chronic addition of inhibitor. Experiments were performed using hfRPE monolayers grown on semipermeable inserts with media access to apical and basal sides of the epithelium. In different sets of experiments, MEK inhibitor was added to apical, basal, or both sides of hfRPE mounted in modified ? ssing chambers. In chronic experiments hfRPE were pre-treated with 10 μM MEK inhibitor added to apical and basal baths for 24, 48, or 72 hours. For chronic experiments lasting more than 24 hours, transepithelial resistance (TER) was measured daily. Prior to the transfer of the epithelial monolayer to the ? ssing chamber, the TER of whole insert was compared to the TER measured in the ? ssing chamber. This procedure helps confirm the tissue integrity following the transfer from the cell culture insert to the ? ssing chamber. The TER summary data for chronic experiments contains cumulative recordings of TER obtained from inserts and ? ssing chambers.

Data set [3] concerns animal model of retinal-reattachment. The following applies: topical addition, cited from earlier work.
Data set [4] has as its system hfRPE monolayers. Particulars: IFN-γ in basal bath, increased from 7; Li et al., 2009; cited from earlier work.
Data set [5] concerns patients with uveitic cystoid macular edema. Briefly: Phase I open label trial of topical IFNγ in patients with CME secondary to uveitis. The data set is classed as in vivo, human. The method, then: A phase I open label clinical trial was conducted aimed at investigating the safety and tolerability of topically applied IFN gamma in patients with uveitic cystoid macular edema. To test whether cystoid macular edema (CME), secondary to uveitis, is caused by the disequilibrium of the JAK/STAT and mTor signal transduction pathways in the retinal pigment epithelium (RPE), IFNγ was topically applied in human patients. Five participants with CME secondary to uveitis received a topical ocular instillation of IFNγ in a Phase I, non-randomized, prospective, uncontrolled, dose-escalation, single-center study. The study involved a one-time instillation or series of instillations of IFNγ on the cornea and measurement of a response with optical coherence tomography (OCT) over a three hour period.
A 25% decrease in macular thickness is observed at a post-instillation as compared to baseline. In the study, the first two participants received one instillation (each instillation contains 10 μg in 0.05 mL solution) on the cornea at time zero, the next two participants received two instillations, 10 minutes apart, for a total dosage of 20 and the final participant received three instillations, 10 minutes apart, for a total of 30 μg. OCT was obtained at −60 minutes, −30 minutes and just before the instillation(s). Repeat OCTs were taken at +30 minutes, +60 minutes and +120 minutes. All participants returned for a one-week safety visit.
The primary outcome was the change in central macular thickness as measured by OCT in response to interferon IFNγ as compared with baseline. Secondary outcomes included changes in macular volume as measured by OCT, visual acuity, intraocular pressure, intraocular inflammation and ocular surface irritation assessed by fluorescein staining of the cornea and conjunctiva to assess toxicity. For safety measurements, the following were measured: the presence of ocular surface irritation assessed by fluorescein staining of the cornea and conjunctiva to assess toxicity; the number and severity of systemic and ocular toxicities and adverse events; and the proportion of participants with a visual loss of ≧15 ETDRS letters.
All participants undergo a dilated ophthalmic examination the day of the testing. One eye is chosen as the study eye. The participants receive the evaluation around 12:00 p.m. Participants then have a OCT at −60 minutes, −30 minutes and just before the ocular instillation. The ocular instillation occurs no earlier than 1:00 p.m. Repeat OCT recordings are taken at +30, +60 and +120 minutes after instillation. There is a window of ±15 minutes for each OCT test.
OCT testing is performed with the Cirrus™ high-definition OCT (Carl Zeiss Meditec, Inc.) scanner using a 512×128 scan pattern where a 6×6-mm area on the retina is scanned with 128 horizontal lines, each consisting of 512 A-scans per line (a total of 65,536 sampled points) within a scan time of 2.4 seconds. The scanner automatically focuses on the macula. Data for macular thickness calculations are collected from an array of A-scans distributed across the macular using the macular thickness analysis algorithm. The three pre-instillation measurements are averaged to calculate the baseline macular thickness measurement. Post-instillation OCT macular thickness calculations (+30, +60 and +120 minutes) is compared to the baseline measurement separately. A 25% reduction in central macular thickness is observed in treated patients.
Interferon γ-1b is administered as follows: • 1. Topical tetracaine 1% or proparacaine 0.5% drops are applied to the study eye surface one to two minutes prior to instillation. • 2. The participant applies punctal pressure to his/her […] eye. • 3. The investigator holds the participant's study eye open. • 4. A volume of 0.05 mL of IFNγ is instilled on the center of the study eye's cornea from a tuberculin syringe. • 5. […]

B1: IFNγ: interferon-γ or, equivalently, interferon-γ1b (CAS number 82115-62-6), pleiotropic cytokine (protein, UniProt P01579 24-161, looked up)
Interferon gamma: QDPYVKEAENLKKYFNAGHSDVADNGTLFLGILKNWKEESDRKIMQSQIVSFYFKLFKNFKDDQSIQKSVETIKEDMNVKFFNSNKKKRDDFEKLTNYSVTDLNVQRKAIHELIQVMAELSPAAKTGKRKRSQMLFRG
As to B1, the “resolution of redness after cessation of drops” value in data set [1] (both affected patients, no persistent ocular changes) is given as “within one day”. In addition, the “clinical outcome in serious retinal detachments” value in data set [1] (four patients studied so far) is “some clinical success”. In data set [1] (second week of a two-week course of therapy), the “painless conjunctival injection with no change in vision” value is “two of the four patients”. Further, in the data set on hfRPE monolayers [2], the “normal fluid absorption after MEK inhibitor” value is “rescue of fluid transport” and the “rescue of apical MEK inhibitor-induced reduction in fluid absorption” value was “reverse”. In the data set on hfRPE monolayers [2] (listed as IFN-γ), the “normal fluid absorption after MEK inhibitor” value is recorded as “partially restored” and the “rescue of apical MEK inhibitor-induced reduction in fluid absorption” value was “almost completely rescued”. Further, the “restoration of MEK inhibitor-decreased fluid absorption” value in the data set on hfRPE monolayers [2] (IFN-γ added to basolateral bath after chronic 10 μM (72 hours) plus acute apical 100 μM MEK inhibitor) is recorded as “almost completely restored”. In addition, the “increase of JV” value in the data set on hfRPE monolayers [2] (IFNγ 5 ng/ml in the basal bath (FIG. 7)) is around 8.6 μl·cm−2·hr^−1. In addition, in the data set with hfRPE monolayers [2] (IFNγ added to the basal side of hfRPE (FIG. 7)), the “fluid transport across RPE” value is listed as “significantly increase”. The “cell viability as measured by TEP and RT” value with hfRPE monolayers [2] (IFNγ treatment of hfRPE) is “did not affect cell viability”. Besides, the “mean JV after IFNγ” value in the data set with hfRPE monolayers [2] (increased from 12.9±1.6, mean±SEM, p<0.01) was 20.5±3.1 μl·cm−2·hr^−1. For the same molecule, the subretinal fluid result in data set [3] (monitored by high resolution OCT) is recorded as “remove fluid from the subretinal space”. In addition, the JAK/STAT pathway result in data set [3] was “activated”. Also, in the data set with hfRPE monolayers [4], the “steady state Jv after IFN-γ” value was 16 μl·cm−2·hr^−1. In data set [5] (5 patients), the “ocular surface irritation by slit lamp exam” value is “no patient developed evidence of ocular surface irritation” and the serious adverse events result is reported as “no serious adverse events”. Moreover, the tolerability of drops result in data set [5] (5 patients, 1-week period) is reported as “well tolerated”. The “patients reporting irritation or other new ocular complaints” value in data set [5] (5 patients, during 1-week period or beyond) is reported as “none of the 5 patients”. For the same molecule, the “thickness and volume of macular edema by OCT” value in data set [5] (most patients) was “slight (albeit clinically insignificant) decrease”. Further, the “decrease in (central) macular thickness by OCT compared to baseline” value in data set [5] (topical instillation 10-30 μg, post-instillation +30, +60, +120 minutes) amounted to 25%.
